Measured values from the supplement of paper PMC9170038.

Tested on: MS2 coat protein
Assay: apparent KD of MS2 coat protein; designed switch direction (-1 OFF switch, 1 ON switch): -1; higher = weaker reporter binding
Summary of the method: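 Normalised cluster fluorescence was curve-fitted, and each design's median over clusters is its apparent KD. Before this, SNAP-549-labelled MS2 coat protein was titrated from 0.7 or 1.5 nM, doubling to 3 µM, over RNA switches transcribed on Illumina chips by stalled E. coli RNA polymerase. Titrations had no input, 200 uM small-molecule ligand, or an oligonucleotide input, and steps lasted 0.8–1.5 h (lowest) to 10–20 min (highest).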

[1] = Eterna round: R95, input ligand: microRNA oligo, concentration not stated
[2] = input ligand: microRNA oligo, concentration not stated
[3] = Eterna round: R95, input ligand: FMN 200 uM
[4] = Eterna round: R95, input ligand: none

Sequence | apparent KD of MS2 coat protein [1] [nM] | apparent KD of MS2 coat protein (input ligand: FMN 200 uM) [nM] | apparent KD of MS2 coat protein [2] [nM] | apparent KD of MS2 coat protein (input ligand: none) [nM] | apparent KD of MS2 coat protein [3] [nM] | apparent KD of MS2 coat protein [4] [nM]
UUAAAGGCAGGAUAUACAUUUUUUUUAUUAUCCUCAUUAUUACAUGAGGAUCACCCAUGUAGAAGGGCCAAAUU [Mat - Exclusion 2 - Mod of Hog - D85] (puzzle: Exclusion 2) | 57.6 |  |  |  |  | 
GAAGAAAACCAAGGAUAUCGGAAAGGAAGUGUACGAGAAGGUGGACAUGGACAUGAGGAUCACCCAUGUGGCCCGAUGCCGUGG [PowerStrip EXNG 1.5] (Eterna round: R96, puzzle: Exclusion NG 1) |  | 54.8 | 33.5 | 38.1 |  | 
GACAUGAGGAUCACCCAUGUAAGGGAUGAACUUCUGGGUAGCUAGGAUAUGGCUAUAAAGAUGGACCAGAAGGAGCGGACCCUA [Orlaveceat] (Eterna round: R96, puzzle: Exclusion NG 3) |  | 48.7 | 31.4 | 32.4 |  | 
GUGUACGGAGGAUAUGCUGGAAUCUAGCGAAGCUAGGUUCCACAUGAGGAUCACCCAUGUAGAAGGCUGUACAC [Dot plot directed A v5] (puzzle: Exclusion 2) | 21.1 |  |  |  |  | 
GGAUCGAGUGUGAGGAUAUACCUAUGGAAACAUAGGUAGAAGGCACAUGAGGAUCACCCAUGUUCCUACGGUCC [Mat - Exclusion 4 - Eli Mod - D8] (Eterna round: R97, puzzle: Brourd's mod of Exclusion 4) |  | 658 |  | 75.5 |  | 
CCGGAUAUGCAGGAUAUCGUAUCGGAGACGAUACGAGAAGGGUAUACAUGAGGAUCACCCAUGUGCCUUACCGG [Mat - Exclusion 6 - Eli Mod - D82] (puzzle: Exclusion 6) | 19 |  |  |  | 23.3 | 20.7
CUGCCGAGAGGAUAUACUAAGCGAAGAGCCUCAUAAAAGUUACAUGAGGAUCACCCAUGUAGAAGGCUUGGGAG [Eternabot (Original) Solution 38] (Eterna round: R97, puzzle: Exclusion 2) |  | 104 |  | 54.4 |  | 
AGAUGGCGAGGAUAUACAUGAGGAUCACCCAUGUGAGAGAUUAGAGUGAGGAAGAAAAGUAGAAGGCGCUGUCA [Mat - Exclusion 3 - Mod of Salish D18] (puzzle: Exclusion 3) | 98.4 |  |  |  | 167 | 144
ACACUUGAACAUGAGGAUCACCCAUGUGUUUUUCUGGUUCGGCAGGAUAUCGUCUAACGCCAGGGCGAGAAGGGCCAAUAAAAG [Inlale] (Eterna round: R96, puzzle: Exclusion NG 3) |  | 26 | 29.4 | 37 |  | 
AUGGGUCCUCACGGAGCUACAUGAGGAUCACCCAUGUGGAUUGAGGAUAUCGACUGCCGACGGCUCGAGAAGGCAGUUUACUGU [Ex NG3 #95] (Eterna round: R96, puzzle: Exclusion NG 3) |  | 18.6 | 14.3 | 20.2 |  | 
UAUUACCUAGGAUAUACAUGAGGAUCACCCAUGUCACGGGUCAACUUGUCCUAUGCGUGUAGAAGGAGGGACCC [JL Ceriza mod 6] (Eterna round: R96, puzzle: Exclusion 3) |  | 25 | 16.5 | 25.4 |  | 
UAUUACCUAGGAUAUACAUGAGGAUCACCCAUGUCACGGGUCAACUUGUCCUAUGCGUGUAGAAGGAGGGACCC [JL Ceriza mod 6] (puzzle: Exclusion 3) | 18.9 |  |  |  |  | 
GAAGAUCUGCAGGAUAUGAGACUGAAACAGUUCUCAGAAGGGCGGACAUGAGGAUCACCCAUGUAAGACUGCAA [Eternabot (Original) Solution 4] (Eterna round: R97, puzzle: Exclusion 6) |  | 41.6 |  | 78.8 |  | 
GCCAGAGCAGGAUAUCUAUAUUAUCACAUGAGGAUCACCCAUGUCCAGCGAAAGCUGGAGGGAGAAGGGCUCUGGC [Fiskers Ex 5 - 26] (puzzle: Exclusion 5) | 76.7 |  |  |  | 55.7 | 74.5
AAAACAAAAGGAUAUACAUGAGGAUCACCCAUGUGGCGAUAAAUCGCCGCUAAACCAUGUAGAAGGUUUGCGAA [EX3 A.2] (Eterna round: R97, puzzle: Exclusion 3) |  | 102 |  | 42.6 |  | 
ACAUGAGGAUCACCCAUGUCCGGCUGGUCCGUCUCGGCUGUCGAGGAUAUAGCACGGUAUCCGCGCUAGAAGGCGGGAGCCGGA [Aenatbe mod 85] (Eterna round: R96, puzzle: Exclusion NG 3) |  | 72.4 | 26 | 39.6 |  | 
AGUAUGUCAGGAUAUCUCGGGUAGUCCACAACAGCUACCGAAGAGAAGGGACAUGAGGAUCACCCAUGUACCAU [EX4 B.23] (Eterna round: R97, puzzle: Exclusion 4) |  | 19.4 |  | 30.6 |  | 

Sequence | apparent KD of MS2 coat protein [1] [nM] | apparent KD of MS2 coat protein (input ligand: FMN 200 uM) [nM] | apparent KD of MS2 coat protein [2] [nM] | apparent KD of MS2 coat protein (input ligand: none) [nM] | apparent KD of MS2 coat protein [3] [nM] | apparent KD of MS2 coat protein [4] [nM]
GUAGAGACAGGAUAUACAUGAGGAUCACCCAUGUGAGGAGGAAAAGAGAGGAGAAAGAGUAGAAGGGUCGAAAG [JR_Exclu3_Sub030] (puzzle: Exclusion 3) | 35.7 |  |  |  | 41.4 | 43
GGAUAUAACGUAGGAUAUCAGAGAAACAGACGAUGAGAAGGACGACAUGAGGAUCACCCAUGUGAUCUAUCAAUAUUAUACAUG [Prohibition 98 - Jieux - Exclusion NG 1] (Eterna round: R96, puzzle: Exclusion NG 1) |  | 874 | 434 | 712 |  | 
CCAACAAGCUUUUUGCUCGACAUGAGGAUCACCCAUGUAAAAUGGGUAAAUUUAAAUUUAAAUUUAUUUAAAUUUGG [-16.3, -42.5 kcal, A 35%] (Eterna round: R97, puzzle: Sensor, turn-off variant 1) |  | 505 |  | 728 |  | 
GCGCACCUACCAAAAGGUAGGUCAACAUGAGGAUCACCCAUGUAGGAUAUCGAUUGCUUUGCAGUCGAGAAGGACAUGAUGCGC [JL ENG3 3.80 Mod 13] (Eterna round: R96, puzzle: Exclusion NG 3) |  | 111 | 36.3 | 36.7 |  | 
AUUAAGUGAGGAUAUACAAGAUCGCUUACCGCCAAAGGCGGACAUGAGGAUCACCCAUGUAGAAGGCACAAAUU [Vesoanor] (puzzle: Exclusion 2) | 40.9 |  |  |  |  | 
GUUCUUCCUGUAAGGAUAUCCAUGUGUCGGUUUAUGGAGAAGGUACAUGAGGAUCACCCAUGUCACCCGCGUUA (Eterna round: R97, puzzle: Brourd's mod of Exclusion 4) |  | 45.9 |  | 18.5 |  | 
AUAAUCGUAGGAUAUCAUUAGCCCUACAUGAGGAUCACCCAUGUGGGCUGGUGAGGGCGGUGAGAAGGACGAGAGA [EX5 B.1] (Eterna round: R97, puzzle: Exclusion 5) |  | 25.1 |  | 18.4 |  | 
UUAAUUAAUUGACUGCAAGAUCAACAUGAGGAUCACCCAUGUGAGGAUAUCAGCUCGAUUAGAGCUGAGAAGGCACAAGCAGUC [ExNG3/16-A1] (Eterna round: R96, puzzle: Exclusion NG 3) |  | 80.4 | 15 | 17.5 |  | 
GAUUAACAUGAGGAUCACCCAUGUGAGGAUAUUGACUUGCUCACUUUCCCAUUAGAGUCGAGAAGGCGCAUCUG [1986#19] (Eterna round: R97, puzzle: Exclusion 1) |  | 34.9 |  | 60.5 |  | 
AAUGUUGUUGUGAGGAUAUCGUAGUUAUUUUGAAACGAGAAGGCACAUGAGGAUCACCCAUGUUUGUUGAUGGU [JR_BMOE4_Sub061] (puzzle: Brourd's mod of Exclusion 4) | 20.8 |  |  |  |  | 
CUAGAUCUUCGGAUCUAGUACAUGAGGAUCACCCAUGUGACGAGUAUAUCUUCAAACAAGCUUUUUGCUCGUCUUAU [Sensor v3 - Turn-off variant 1 - 24] (puzzle: Sensor v3, turn-off variant 1) | 49.5 |  |  |  | 37.3 | 40.6
AGAGUGAGAGGAUAUUGGAUUCCUAACAUGAGGAUCACCCAUGUAGUACGGUGCUACUGACAAGAAGGCUCACUCU [etrenacac ex5r4 #7] (Eterna round: R97, puzzle: Exclusion 5) |  | 54.5 |  | 76.1 |  | 
UCAAGCUUUAAGCGCGUGAACAUGAGGAUCACCCAUGUAUUUCGGGUUUUGGUUUUUUGUAUGGGUUCUUGUCUUAU [JR_SWV3TOV1_Sub096] (puzzle: Sensor v3, turn-off variant 1) | 19.2 |  |  |  | 39.2 | 41.8
UACCUGAGGCAAAGCUUUAGGUAAACAUGAGGAUCACCCAUGUAGGAUAUGGUAGGCUUUGCUUACCAGAAGGACAUGUUAAUU [Mat - Exclusion NG 3 - Mod of JL - D33] (Eterna round: R96, puzzle: Exclusion NG 3) |  | 215 | 41.9 | 59.7 |  | 
UACACUGCAUGAGGAUCAAACAUGAGGAUCACCCAUGUAUAGCAAGCUUUUUGCACGUCUUAUAAUUAUGUAGUGUA [Electric Eye 13 - Jieux - Sensor, turn-off variant 1] (Eterna round: R97, puzzle: Sensor, turn-off variant 1) |  | 15.1 |  | 16.2 |  | 
CAAAAGCUAGGAUAUACACAAAACGCCUGCAUGCAAACAUCACAUGAGGAUCACCCAUGUAGAAGGAGCGGAAA [EX2 A.21] (Eterna round: R97, puzzle: Exclusion 2) |  | 22.1 |  | 19.1 |  | 
